We go through one substance from publication PMC10286996.

As a reminder, the stoichiometry N is the number of molecules, sites or subunits per partner or assembly.

The test deals with slipper limpet hemocyanin (Crepidula fornicata) (Crepidula fornicata). Nature of the test: cryo-EM structure; SLH (ion exchange flow-through) at 15 mg/ml, Chameleon grids, Glacios microscope, Relion 3.1; didecamer built with d5, tridecamer with c5 symmetry.

“And” between values parts separate entries of the source, which are not always exact repeats. Equal entries are not always repeated.

“slipper limpet hemocyanin (Crepidula fornicata) (natural protein)”: the stoichiometry N is 20 and 30.
